Test results reported in patent publication US20210340217A1, “NOVEL PEPTIDES AND COMBINATION OF PEPTIDES FOR USE IN IMMUNOTHERAPY AGAINST OVARIAN CANCER AND OTHER CANCERS” (Immatics Biotechnologies GmbH, priority 2017, published 2021).

Biological target: HLA-A*02:01 (Homo sapiens, UniProt P04439, D140Y/D185E/D98H/E176V/E277Q/G131W/G231S/I119V/I121R/I166T/I218V/L300P/L318F/N151K/N90K/P208A/P217A/Q86G/Q94H/R138H/R169H/T345S)
Test: MHC binding assay (UV-ligand exchange, beta2m ELISA)
Details: peptide exchange yield
Method in brief: (§1)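 Peptide–MHC complexes formed by UV-induced exchange of a UV-cleavable peptide for the test peptide. Exchange yield measured by streptavidin-capture ELISA detecting β2m (HRP anti-β2m, TMB, A450) on 100-fold diluted samples. Quantified against refolded HLA-A*02:01/MLA-001 standards (15-500 ng/ml).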

Row | Substance | Peptide exchange
1 | 9 (VLLAGFKPPL; listed as Homo sapiens) [compound 9] | + (>10% = +)
2 | 4 (ALFKAWAL; listed as Homo sapiens) [compound 4] | ++++ (>75% = ++++)
3 | 62 (KVLGVNVML; listed as Homo sapiens) [compound 62] | ++++ (>75% = ++++)
4 | 66 (GLLQELSSI; listed as Homo sapiens) [compound 66] | ++++ (>75% = ++++)
5 | 72 (YLTDLQVSL; listed as Homo sapiens) [compound 72] | ++++ (>75% = ++++)
6 | 3 (ALIYNLVGI; listed as Homo sapiens) [compound 3] | ++++ (>75% = ++++)
7 | 5 (RLLDFINVL; listed as Homo sapiens) [compound 5] | ++++ (>75% = ++++)
8 | 61 (YMVHIQVTL; listed as Homo sapiens) [compound 61] | ++++ (>75% = ++++)
9 | 2 (TLLKALLEI; listed as Homo sapiens) [compound 2] | ++++ (>75% = ++++)
10 | 70 (VLQGLLRSL; listed as Homo sapiens) [compound 70] | ++++ (>75% = ++++)
11 | 71 (YLEDTDRNL; listed as Homo sapiens) [compound 71] | ++++ (>75% = ++++)
12 | 69 (TTYEGSITV; listed as Homo sapiens) [compound 69] | ++++ (>75% = ++++)
13 | 6 (SLGKHTVAL; listed as Homo sapiens) [compound 6] | +++ (>50 = +++)
14 | 8 (YLVTKVVAV; listed as Homo sapiens) [compound 8] | ++++ (>75% = ++++)
15 | 63 (MMEEMIFNL; listed as Homo sapiens) [compound 63] | ++++ (>75% = ++++)
16 | 60 (GLLSLTSTLYL; listed as Homo sapiens) [compound 60] | ++++ (>75% = ++++)
17 | 64 (FLDPDRHFL; listed as Homo sapiens) [compound 64] | ++++ (>75% = ++++)
18 | 67 (SLLLPSIFL; listed as Homo sapiens) [compound 67] | ++++ (>75% = ++++)
19 | 7 (ALQAFEFRV; listed as Homo sapiens) [compound 7] | ++++ (>75% = ++++)
20 | 1 (MIPTFTALL; listed as Homo sapiens) [compound 1] | +++ (>50 = +++)
21 | 68 (KLFDTQQFL; listed as Homo sapiens) [compound 68] | ++++ (>75% = ++++)

Continued, values first:

Row | Peptide exchange | Substance
22 | +++ (>50 = +++) | 231 (SVTESTHHL; listed as Homo sapiens) [compound 231]
23 | ++++ (>75% = ++++) | 232 (TISSLTHEL; listed as Homo sapiens) [compound 232]
24 | + (>10% = +) | 219 (PLPRPGAVL; listed as Homo sapiens) [compound 219]
25 | +++ (>50 = +++) | 242 (STIPALHEI; listed as Homo sapiens) [compound 242]
26 | + (>10% = +) | 229 (ISVPAKTSL; listed as Homo sapiens) [compound 229]
27 | ++++ (>75% = ++++) | 216 (IMFDDAIERA; listed as Homo sapiens) [compound 216]
28 | ++++ (>75% = ++++) | 228 (RLWDWVPLA; listed as Homo sapiens) [compound 228]
29 | ++ (>20% = ++) | 241 (RQPNILVHL; listed as Homo sapiens) [compound 241]
30 | +++ (>50 = +++) | 220 (RMTTQLLLL; listed as Homo sapiens) [compound 220]
31 | + (>10% = +) | 223 (FAHHGRSL; listed as Homo sapiens) [compound 223]
32 | ++++ (>75% = ++++) | 222 (ALMRLIGCPL; listed as Homo sapiens) [compound 222]
33 | +++ (>50 = +++) | 243 (YASEGVKQV; listed as Homo sapiens) [compound 243]
34 | ++ (>20% = ++) | 234 (GVATRVDAI; listed as Homo sapiens) [compound 234]
35 | ++++ (>75% = ++++) | 224 (SLPRFQVTL; listed as Homo sapiens) [compound 224]
36 | ++ (>20% = ++) | 221 (SLLDLYQL; listed as Homo sapiens) [compound 221]
37 | ++++ (>75% = ++++) | 73 (FLIEELLFA; listed as Homo sapiens) [compound 73]
38 | + (>10% = +) | 217 (VSSSLTLKV; listed as Homo sapiens) [compound 217]
39 | +++ (>50 = +++) | 225 (SVFAHPRKL; listed as Homo sapiens) [compound 225]
40 | +++ (>50 = +++) | 236 (SAIPFSMTL; listed as Homo sapiens) [compound 236]
41 | + (>10% = +) | 244 (DTDSSVHVQV; listed as Homo sapiens) [compound 244]
42 | ++++ (>75% = ++++) | 75 (KVVSVLYNV; listed as Homo sapiens) [compound 75]
43 | +++ (>50 = +++) | 227 (YTFRYPLSL; listed as Homo sapiens) [compound 227]

Biological target: HLA-A*24:02 (Homo sapiens, UniProt P04439, D101N/D140Y/D185E/E176V/E190D/F33S/G103R/G107R/I119L/I121M/I306V/K335N/L105A/L180Q/L300P/N151K/N90K/Q86E/Q94H/R106L/R138H/R89G/T104I/T345S/V100E/W191G/Y123F)
Test: as above
Details: peptide exchange yield
Method in brief: as §1

Row | Substance | Peptide exchange
44 | 12 (KYEKIFEML; listed as Homo sapiens) [compound 12] | ++++ (>75% = ++++)
45 | 19 (KYVKVFHQF; listed as Homo sapiens) [compound 19] | ++++ (>75% = ++++)
46 | 11 (SYSDLHYGF; listed as Homo sapiens) [compound 11] | ++++ (>75% = ++++)
47 | 10 (RYSDSVGRVSF; listed as Homo sapiens) [compound 10] | ++++ (>75% = ++++)
48 | 18 (KYPVHIYRL; listed as Homo sapiens) [compound 18] | ++++ (>75% = ++++)
49 | 16 (IYSPQFSRL; listed as Homo sapiens) [compound 16] | ++++ (>75% = ++++)
50 | 13 (VYTFLSSTL; listed as Homo sapiens) [compound 13] | ++++ (>75% = ++++)
51 | 15 (VYHDDKQPTF; listed as Homo sapiens) [compound 15] | ++++ (>75% = ++++)

Second part, the substance after the results:

Row | Peptide exchange | Substance
52 | ++++ (>75% = ++++) | 82 (SYFRGFTLI; listed as Homo sapiens) [compound 82]
53 | ++++ (>75% = ++++) | 81 (VYNHTTRPL; listed as Homo sapiens) [compound 81]
54 | ++++ (>75% = ++++) | 76 (KYVAELSLL; listed as Homo sapiens) [compound 76]
55 | ++++ (>75% = ++++) | 246 (RYLAVVHAVF; listed as Homo sapiens) [compound 246]
56 | ++++ (>75% = ++++) | 78 (SFAPRSAVF; listed as Homo sapiens) [compound 78]
57 | ++++ (>75% = ++++) | 249 (VYTPTLGTL; listed as Homo sapiens) [compound 249]
58 | ++++ (>75% = ++++) | 79 (SYNEHWNYL; listed as Homo sapiens) [compound 79]
59 | +++ (>50 = +++) | 80 (TAYMVSVAAF; listed as Homo sapiens) [compound 80]

Biological target: HLA-A*03:01 (Homo sapiens, UniProt P04439)
Test: as above
Details: peptide exchange yield
Method in brief: as §1

Row | Substance | Peptide exchange
60 | 24 (SMYYPLQLK; listed as Homo sapiens) [compound 24] | +++ (>50 = +++)
61 | 23 (GMMKGGIRK; listed as Homo sapiens) [compound 23] | +++ (>50 = +++)
62 | 27 (VLYGPAGLGK; listed as Homo sapiens) [compound 27] | +++ (>50 = +++)
63 | 26 (RISEYLLEK; listed as Homo sapiens) [compound 26] | ++ (>20% = ++)

Results, then the substance that gave them:

Row | Peptide exchange | Substance
64 | ++ (>20% = ++) | 86 (VVLLGSLFSRK; listed as Homo sapiens) [compound 86]
65 | +++ (>50 = +++) | 94 (ATFERVLLR; listed as Homo sapiens) [compound 94]
66 | ++ (>20% = ++) | 99 (KVVDRWNEK; listed as Homo sapiens) [compound 99]
67 | ++ (>20% = ++) | 110 (SAAPPSYFR; listed as Homo sapiens) [compound 110]
68 | ++ (>20% = ++) | 98 (LLQPPPLLAR; listed as Homo sapiens) [compound 98]
69 | ++ (>20% = ++) | 280 (SVSGVKTTF; listed as Homo sapiens) [compound 280]
70 | ++ (>20% = ++) | 106 (AAFVPLLLK; listed as Homo sapiens) [compound 106]
71 | +++ (>50 = +++) | 83 (GTYAHTVNR; listed as Homo sapiens) [compound 83]
72 | +++ (>50 = +++) | 258 (GAYAHTVNR; listed as Homo sapiens) [compound 258]
73 | + (>10% = +) | 276 (VSKTTGMEF; listed as Homo sapiens) [compound 276]
74 | ++ (>20% = ++) | 285 (GTVNPTVGK; listed as Homo sapiens) [compound 285]
75 | ++ (>20% = ++) | 104 (VLADSVTTK; listed as Homo sapiens) [compound 104]
76 | +++ (>50 = +++) | 90 (KVAGERYVYK; listed as Homo sapiens) [compound 90]
77 | + (>10% = +) | 281 (RAKELEATF; listed as Homo sapiens) [compound 281]
